Reference: PMC6461199

target: TDP-43 N-RRM1-2 (UniProt Q13148 1-269); experiment: BLI
Sequence (Q13148 1-269): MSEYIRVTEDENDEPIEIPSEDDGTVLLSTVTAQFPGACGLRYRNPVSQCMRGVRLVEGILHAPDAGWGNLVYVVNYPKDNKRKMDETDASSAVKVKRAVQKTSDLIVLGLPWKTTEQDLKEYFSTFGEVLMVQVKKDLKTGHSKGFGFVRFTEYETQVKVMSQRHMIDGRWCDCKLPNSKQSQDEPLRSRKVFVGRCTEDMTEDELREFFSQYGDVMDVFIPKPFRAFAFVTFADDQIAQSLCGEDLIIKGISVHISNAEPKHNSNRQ

| Binder | Kd |
| --- | --- |
| GUGUGAAUGAAUGUGUGAAUGAAUGUGUGAAUGAAU (ssRNA) [RNA36] | 22 nM |
| AAGUGUGGUAUA (ssRNA) [RNA12S2] | 75 nM |
| UUAUACCUACCA (ssRNA) [NegRNA12S1] | 1650 nM |
| CUCACAUUAUCA (ssRNA) [NegRNA12S2] | 1340 nM |
| GUGUGAAUGAAU (ssRNA) [RNA12] | 6.3 nM |
| AUUCAUUCACAC (ssRNA) [NegRNA12] | 1900 nM |
| UAGAGUAUGAUG (ssRNA) [RNA12S1] | 60 nM |
